{"source": "paper PMC8018021", "about": "(Proceedings of the National Academy of Sciences of the …, 2021)", "molecules": {"B1": {"name": "PGAM (Synechocystis sp. PCC 6803 substr. Kazusa) (protein)", "chain": "MAEAPIAPVVLVILDGWGYRPDTRANAIAQANTPIMDSLIAAYPNTLVNTSGKDVGLPKGQMGNSEVGHLNLGAGRVVPQELVRISDAIEDGTFFDNQALIEVCQRVRDRRGKLHLIGLCSDGGVHSHIDHLLGLIDLAKLQGISQLCIHAITDGRDTPTNEGAHFVQQIQAHLEKIGLGRIVSVSGRYYALDRDRRWDRVEKAYRVMTEDGVGDGRSAAQVIKDYYASDITDEFIPPTRIGAGAIASGDGVIFYNFRPDRARQLCYALVNPSFDGFPRERIQPLDFVTFTQYDPALPVVVAFEPQNLNNILGEIISRQGMKQFRTAETEKYPHVTYFFNGGLEQPFAGEDRELIQSPMVSTYDKAPQMSAKAVTDAVCRAMEKGIYSLVVVNYANPDMVGHTGKLKEAIQAIETVDLNLGRLLASAAKVGGTVLITADHGNAEYMSDESGNPWTAHTTNPVPFILVEGEGRKIPGHGGEVKLREGGKLADIAPTILDILQLPVPAEMTGKTLIDQPLVEIKANRTPVNLSR"}, "B2": {"name": "PirC (PII-interacting regulator of carbon metabolism; product of sll0944), short 112-amino-acid variant, strep-tagged (natural protein)", "chain": "MSQILDPIPNNQPSALFCCYVNATNQIQVARITNVPNWYFERVVFPGQRLVFEAVPSAQLEIHTGMMASSIISDTIPCEQLSIDPDGLAAGGFISPEKEHESEDMTSQSLVA"}}, "key": {"PII–PirC complex [1]": {"target": "T1, PII–PirC complex (Synechocystis sp. PCC 6803, UniProt Q55247)", "T1 sequence (Q55247 whole entry, one chain of several)": "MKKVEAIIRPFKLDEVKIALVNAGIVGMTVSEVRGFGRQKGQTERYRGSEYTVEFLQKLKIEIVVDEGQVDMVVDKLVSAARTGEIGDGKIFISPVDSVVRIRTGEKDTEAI", "assay": "bio-layer interferometry, enhancement of PirC–PII binding", "conditions": "effector promotes PII–PirC complex"}, "PGAM–PirC complex": {"target": "T2, PGAM–PirC complex (Synechocystis sp. PCC 6803, UniProt P74507)", "T2 sequence (P74507 1-532)": "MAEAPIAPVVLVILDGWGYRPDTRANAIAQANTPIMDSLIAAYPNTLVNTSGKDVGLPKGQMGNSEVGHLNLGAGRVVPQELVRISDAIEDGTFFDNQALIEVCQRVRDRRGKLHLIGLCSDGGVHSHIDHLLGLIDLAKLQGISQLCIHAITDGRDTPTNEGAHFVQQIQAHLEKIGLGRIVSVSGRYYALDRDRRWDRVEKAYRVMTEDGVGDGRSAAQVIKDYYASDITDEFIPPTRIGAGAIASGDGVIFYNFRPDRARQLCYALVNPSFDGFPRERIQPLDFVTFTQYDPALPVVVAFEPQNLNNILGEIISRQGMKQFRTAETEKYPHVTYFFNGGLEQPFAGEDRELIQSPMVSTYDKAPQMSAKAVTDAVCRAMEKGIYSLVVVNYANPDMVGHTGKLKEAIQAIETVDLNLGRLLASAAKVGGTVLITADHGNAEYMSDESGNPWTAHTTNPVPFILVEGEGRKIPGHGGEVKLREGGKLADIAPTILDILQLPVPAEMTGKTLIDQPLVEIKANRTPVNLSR", "T2 sequence (P77971 53-164 partner)": "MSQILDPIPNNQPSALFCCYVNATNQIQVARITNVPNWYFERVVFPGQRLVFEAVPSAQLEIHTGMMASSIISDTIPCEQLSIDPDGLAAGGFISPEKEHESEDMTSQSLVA", "assay": "bio-layer interferometry, inhibition of PirC–PGAM binding"}, "PII–PirC complex [2]": {"target": "T1, PII–PirC complex", "assay": "bio-layer interferometry, inhibition of PirC–PII binding"}, "purified protein": {"substrate": "O=C(O)[C@H](O)COP(=O)(O)O", "assay": "purified protein", "assay_type": "biochemical, Synechocystis sp. PCC 6803", "conditions": "no PirC, pH 8.0, 30 °C, 5 mM MgSO4, 0.4 mM MnCl2, 100 mM KCl"}, "[3]": {"target": "T3, PII signalling protein, C-terminal His8-tagged (Synechocystis sp. PCC 6803, UniProt Q55247 1-112)", "T3 sequence (Q55247 whole entry)": "as the sequence (Q55247 whole entry, one chain of several) above", "assay": "BLI"}, "[4]": {"target": "T3, PII signalling protein, C-terminal …", "assay": "SPR"}}, "note": "“And” between values parts separate entries of the source, which are not always exact repeats. Equal entries are not always repeated."}
{"molecule": "Nc1ncnc2c1ncn2[C@@H]1O[C@H](COP(=O)(O)OP(=O)(O)OP(=O)(O)O)[C@@H](O)[C@H]1O", "note": "[ATP]", "values": [{"measurement": "bio-layer interferometry, enhancement of PirC-PII binding", "setting": "PII–PirC complex [1]; 2 mM ATP", "value": "In the presence of ATP or ADP, PirC binding to PII strongly increased"}]}
{"molecule": "O=C(O)[C@@H](CO)OP(=O)(O)O", "note": "[2-PGA]", "values": [{"measurement": "IC50", "setting": "PGAM–PirC complex", "value": "970 ± 1", "unit": "µM"}]}
{"molecule": "O=C(O)CCC(=O)C(=O)O", "note": "[2-OG]", "values": [{"measurement": "IC50", "setting": "PII–PirC complex [2]", "value": "123.4 ± 1.1", "unit": "µM"}]}
{"molecule": "O=C(O)[C@H](O)COP(=O)(O)O", "note": "[3-PGA]", "values": [{"measurement": "IC50", "setting": "PGAM–PirC complex", "value": "2400 ± 1", "unit": "µM"}]}
{"molecule": "Nc1ncnc2c1ncn2[C@@H]1O[C@H](COP(=O)(O)OP(=O)(O)O)[C@@H](O)[C@H]1O", "note": "[ADP]", "values": [{"measurement": "bio-layer interferometry, enhancement of PirC-PII binding", "setting": "PII–PirC complex [1]; 2 mM ADP", "value": "In the presence of ATP or ADP, PirC binding to PII strongly increased"}]}
{"molecule": "B1", "values": [{"measurement": "Km", "setting": "purified protein", "value": "126.6 ± 6.4", "unit": "µM"}, {"measurement": "Vmax", "setting": "purified protein", "value": 2.85, "unit": "µmol/min/mg"}, {"measurement": "kcat", "setting": "purified protein", "value": "2.78 ± 0.03", "unit": "s⁻¹"}, {"measurement": "kcat/Km", "setting": "purified protein", "value": 22000, "unit": "M⁻¹ s⁻¹"}]}
{"molecule": "B2", "values": [{"measurement": "Kd", "setting": "[3]", "value": "0.0373 µM and 0.0141 µM"}, {"measurement": "stoichiometry N", "setting": "[4]", "value": "~1 PirC monomer per PII trimer"}]}
